How the values were obtained:
[1] = target: T1, GST-BrERF72 (Brassica (Chinese flowering cabbage), UniProt M4CBR0 1-245); test: EMSA; LightShift Chemiluminescent EMSA kit, 6% native PAGE; buffer, salt, pH and temperature not stated; conditions: protein: recombinant, tags: N-terminal GST (pGEX-4T-1), label: 5' biotin
[2] = target: T1, GST-BrERF72; test: competition; unlabeled mutant vs labeled BrLOX4 probe; LightShift Chemiluminescent EMSA kit, 6% native PAGE; buffer, salt, pH and temperature not stated; conditions: protein: recombinant; tags: N-terminal GST (pGEX-4T-1); blunt
[3] = target: T1, GST-BrERF72; test: competition; unlabeled mutant vs labeled BrAOC3 probe; LightShift Chemiluminescent EMSA kit, 6% native PAGE; buffer, salt, pH and temperature not stated; conditions: protein: recombinant; tags: N-terminal GST (pGEX-4T-1); blunt
[4] = target: T1, GST-BrERF72; test: competition; unlabeled mutant vs labeled BrOPR3 probe; LightShift Chemiluminescent EMSA kit, 6% native PAGE; buffer, salt, pH and temperature not stated; conditions: protein: recombinant; tags: N-terminal GST (pGEX-4T-1); blunt

T1 sequence (M4CBR0 entry or part of it): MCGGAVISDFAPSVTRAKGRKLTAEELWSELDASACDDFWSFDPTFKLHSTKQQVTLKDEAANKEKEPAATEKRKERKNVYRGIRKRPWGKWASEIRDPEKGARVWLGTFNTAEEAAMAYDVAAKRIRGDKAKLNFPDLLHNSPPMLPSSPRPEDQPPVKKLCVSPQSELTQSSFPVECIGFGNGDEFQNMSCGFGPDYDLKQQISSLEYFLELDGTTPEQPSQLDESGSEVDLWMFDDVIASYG

B1: GCC-box probe (dsDNA)
DNA 1: CATAAGAGCCGCCACTCATAAGAGCCGCCACT
DNA 2: AGTGGCGGCTCTTATGAGTGGCGGCTCTTATG
Does B1 bind [1]?
Result: binds

B2: DRE/CRT probe (dsDNA)
DNA 1: ATTTCATGGCCGACCTGCTTTCATGGCCGACCTGCTTT
DNA 2: AAAGCAGGTCGGCCATGAAAGCAGGTCGGCCATGAAAT
Does B2 bind [1]?
Result: binds

B3: BrLOX4 promoter probe (dsDNA)
DNA 1: ACATGTTATATCCGCGCGAAGCGCGGACACCGACTCTAGTTATCAGTAAAAATAAATG
DNA 2: CATTTATTTTTACTGATAACTAGAGTCGGTGTCCGCGCTTCGCGCGGATATAACATGT
Does B3 bind ([1]; blunt)?
Result: binds

B4: BrAOC3 promoter probe (dsDNA)
DNA 1: ATGTCTTCACTAAAAACACTATACCGACCAGAGTTTTGTAGACATAAATTACGAA
DNA 2: TTCGTAATTTATGTCTACAAAACTCTGGTCGGTATAGTGTTTTTAGTGAAGACAT
Does B4 bind ([1]; blunt)?
Result: binds

B5: BrOPR3 promoter probe (dsDNA)
DNA 1: CCTGAACCAATCATAGCCTGGCGGCTAAGTCTTACAGTTGA
DNA 2: TCAACTGTAAGACTTAGCCGCCAGGCTATGATTGGTTCAGG
Does B5 bind ([1]; blunt)?
Result: binds

B6: mBrLOX4 promoter probe (dsDNA)
DNA 1: ACATGTTATATCCGCGCGAAGCGCGGACAAAAAATCTAGTTATCAGTAAAAATAAATG
DNA 2: CATTTATTTTTACTGATAACTAGATTTTTTGTCCGCGCTTCGCGCGGATATAACATGT
Does B6 bind [2]?
Result: no binding

B7: mBrAOC3 promoter probe (dsDNA)
DNA 1: ATGTCTTCACTAAAAACACTATAAAAAACAGAGTTTTGTAGACATAAATTACGAA
DNA 2: TTCGTAATTTATGTCTACAAAACTCTGTTTTTTATAGTGTTTTTAGTGAAGACAT
Does B7 bind [3]?
Result: no binding

B8: mBrOPR3 promoter probe (dsDNA)
DNA 1: CCTGAACCAATCATAGCCTAAAAAATAAGTCTTACAGTTGA
DNA 2: TCAACTGTAAGACTTATTTTTTAGGCTATGATTGGTTCAGG
Does B8 bind [4]?
Result: no binding
